Source: patent publication US20220298254A1 (HUMMINGBIRD BIOSCIENCE HOLDINGS PTE, published 2022)
Changes are numbered by the printed parent chain.

B1: anti-CD47 clone 1-1-A1 IgG1 (antibody, V domains shown)
VH: EVQLQQSGPDLVKPGASVKMSCKASGYTFTNYVIHWVKQKPGQGLEWIGYINPYNDGTKSNEKFKGKATLTSDKSSTSAYMELSSLTSEDSAVYYCASGGYYTMDYWGQGTSVTVSS
VL: DVVMTQTPLSLPVSLGDQASISCRSSQHLEYSNGYSYLHWYLQKPGQSPQLLIYKISNRFSGVPDRFSGSGSGTDFTLKISRVEAEDLGVYFCSQSTHVPYTFGGGTKLEIKR
B2: anti-CD47 clone 1-1-A1_BM IgG1 (antibody, V domains shown)
VH: B1 VH with E1Q, V12K, M20V, A24V, K38R, I48M, S91T
VL: B1 VL with S14T, L42Q, K44R, F92Y
B3: 11A1H4-IgG1 (antibody, V domains shown)
VH: QVQLVQSGAEVKKPGASVKVSCKASGYTFTNYVIHWVRQAPGQGLEWMGYINPYNDGTKYNQKFKGRVTLTSDTSTTTAYMELSRLRSDDTAVYYCASGGYYTMDYWGQGTLVASTK
VL: B1 VL with T7S, S14T, D17Q, Q18P, L42Q, K44R, Q50R, L88V, F92Y, L109V
notes: Humanised version of clone 1-1-A1, IgG1/kappa; also called 1A11H4
B4: 11A1H6-IgG1 (antibody, V domains shown)
VH: B3 VH
VL: DVVMTQSPLSLPVTLGQPASISCRSSQHLEYSQGYSYLHWYQQRPGQSPRLLIYKVSNRDSGVPDRFSGSGSGTDFTLKISRVEAEDVGVYYCSQSTHVPYTFGGGTKVEIKR
notes: Humanised version of clone 1-1-A1, IgG1/kappa; also called 1A11H6
B5: 11A1H3-IgG1 (antibody, V domains shown)
VH: B3 VH with I34M, Y60S, Q62E, K65Q, T77S, R85S, D89E
VL: B4 VL with Q33N, V56I, D60F
notes: Humanised version of clone 1-1-A1, IgG1/kappa; also called 1A11H3
B6: 11A1H10-IgG1 (antibody, V domains shown)
VH: B3 VH with N31G, D56G, K59N, N61A, D89E, A114T, S115V, T116S, K117S
VL: B4 VL with Q33N
notes: Humanised version of clone 1-1-A1, IgG1/kappa; also called 1A11H10
B7: 11A1H11-IgG1 (antibody, V domains shown)
VH: B3 VH with N31G, D56G, K59N, N61A, D89E, A114T, S115V, T116S, K117S
VL: B4 VL with Q33N, V56I, D60F, S96G
notes: Humanised version of clone 1-1-A1, IgG1/kappa; also called 1A11H11
B8: 11A1H5-IgG1 (antibody, V domains shown)
VH: B3 VH with N31G, D56G, K59N, N61A, D89E, A114T, S115V, T116S, K117S
VL: B4 VL with Q33N, V56I, D60F
notes: Humanised version of clone 1-1-A1, IgG1/kappa; also called 1A11H5
B9: 11A1H7-IgG1 (antibody, V domains shown)
VH: B3 VH with N31G, D56G, K59N, N61A, D89E, A114T, S115V, T116S, K117S
VL: B4 VL
notes: Humanised version of clone 1-1-A1, IgG1/kappa; also called 1A11H7
B10: 11A1H9-IgG1 (antibody, V domains shown)
VH: B3 VH with N31G, D56G, K59N, N61A, D89E, A114T, S115V, T116S, K117S
VL: B4 VL with Q33T
notes: Humanised version of clone 1-1-A1, IgG1/kappa; also called 1A11H9

Biological target: T1, human CD47 (recombinant protein, construct not stated) (human, UniProt Q08722 19-141)
T1 construct: also called hCD47; human CD47 protein
Test: BLI (BLItz), IgG captured on anti-human IgG Fc (AHC) tips, human CD47 as analyte, global 1:1 fit
Protocol: (§1) Bio-Layer Interferometry (BLI) experiments were performed using a single channel BLItz system (ForteBio, Menlo Park, Calif.) using Anti-human immunoglobulin G (IgG) Fc (AHC) coated biosensor tips (Pall ForteBio, Menlo Park, Calif.) for capturing human IgGs. Biosensors were first hydrated for at least 10 m in assay buffer (phosphate buffered saline) followed by buffer baseline for 30 s and loading of the human IgGs onto the biosensor tips at concentrations ranging from 25-50 nM for 120 s. The tips were then washed briefly for 30 s with the assay buffer to remove nonspecifically bound proteins or unbound IgGs for obtaining a second buffer baseline. The association phase of the IgGs with antigens (500 nM-0 nM) was set up at 120 s which was followed by a dissociation phase (assay buffer alone) for 120 s. All the BLITz runs were measured at room temperature at a stirring speed of 1000 rpm and AHC biosensors were regenerated using 10 mM of glycine (pH 2.7) after the assay. Binding affinity between the immobilized antibodies on the AHC sensors and human CD47 were determined by analyzing the binding kinetic curves using the software BLItz Pro. All the sensorgrams were reference subtracted and globally fitted into a 1:1 model which analysed the binding curves at different concentrations of antigens and generated kinetic constants (KD/Ka/Kd) for the globally fitted data. All the binding curves were subjected to step correction which corrects the misalignment between association and dissociation steps and only the curves with R² values greater than 0.9 were used for analysis.
(§2) The anti-CD47 antibody clones in IgG1 format were analyzed for binding affinity to human CD47.

Row | Binder | koff | kon
1 | B1 | 0.00371 s⁻¹ | 451000 M⁻¹ s⁻¹
2 | B2 | 0.00217 s⁻¹ | 134000 M⁻¹ s⁻¹

Biological target: human VISTA protein (human, UniProt Q9H7M9 33-194, limits assumed)
Test: ELISA on coated human VISTA protein
Protocol: (§3) 96-well plates (Nunc, Denmark) were coated with 1 μg/ml of human CD47 or VISTA protein in PBS, for 1 h at room temperature. Plates were blocked for 1 h at room temperature with 1% BSA in Tris buffer saline containing 0.05% Tween 20 (TBS-T). The test antigen-binding molecules were added at concentrations ranging from to 0.002 μg/ml to 200 μg/ml, and the plates were incubated at room temperature for 1 h. Plates were then washed three times with TBS-T, and were then incubated with a HRP-conjugated secondary antibody for 1 h at room temperature. After washing, plates were developed with colorimetric detection substrate 3,3′,5,5′-tetramethylbenzidine (Turbo-TMB; Pierce, USA). The reaction was stopped after 3.5 min with 2M […], and OD was measured at 450 nm.
In a separate ELISA, the antigen-binding molecules were evaluated for binding to human VISTA.

Row | Binder | binding result
3 | B3 | no binding (tested: 0.002 µg/ml to 200 µg/ml)
4 | B4 | no binding (tested: 0.002 µg/ml to 200 µg/ml)
5 | B2 | no binding (tested: 0.002 µg/ml to 200 µg/ml)
6 | B5 | no binding (tested: 0.002 µg/ml to 200 µg/ml)
7 | B6 | no binding (tested: 0.002 µg/ml to 200 µg/ml)
8 | B7 | no binding (tested: 0.002 µg/ml to 200 µg/ml)
9 | B8 | no binding (tested: 0.002 µg/ml to 200 µg/ml)
10 | B9 | no binding (tested: 0.002 µg/ml to 200 µg/ml)
11 | B10 | no binding (tested: 0.002 µg/ml to 200 µg/ml)

Biological target: T2, untagged human CD47 protein (Sinobiological Inc) (human, UniProt Q08722 19-141)
T2 construct: Bought
Test: competition ELISA: inhibition of His-tagged SIRPα binding to coated human CD47

Row | Binder | Fold increase in IC50 relative to 1-1-A1_BM | IC50
12 | B3 | 0.32 fold | 0.15 µg/mL
13 | B4 | > 200 fold | > 100 µg/mL
14 | B2 | 1 fold | 0.474 µg/mL
15 | B6 | > 200 fold | > 100 µg/mL
16 | B7 | 1.02 fold | 0.483 µg/mL
17 | B8 | 0.42 fold | 0.201 µg/mL
18 | B9 | > 200 fold | > 100 µg/mL
19 | B10 | > 200 fold | > 100 µg/mL

Biological target: T1, human CD47 (recombinant protein, …)
Test: ELISA on coated human CD47
Protocol: as §3

Row | Binder | EC50 | Fold increase in EC50 relative to 1-1-A1_BM
20 | B3 | 0.00018 µg/mL | 0.1 fold
21 | B4 | 13.4 µg/mL | 7440 fold
22 | B2 | 0.0018 µg/mL | 1 fold
23 | B5 | 0.00022 µg/mL | 0.12 fold
24 | B6 | 38.1 µg/mL | 21200 fold
25 | B7 | 0.0021 µg/mL | 1.17 fold
26 | B8 | 0.00015 µg/mL | 0.08 fold
27 | B9 | 36.8 µg/mL | 20400 fold
28 | B10 | 23.5 µg/mL | 13100 fold

Biological target: T3, his-tagged human CD47 (human, UniProt Q08722 19-141)
T3 construct: not shown: his tag
Test: BLI (Octet), his-tagged human CD47 loaded on anti-Penta-HIS (HIS1K) sensors, antibody as analyte
Protocol: (§4) Buffer baseline was obtained for 30 s, and then sensors were loaded with his-tagged human CD47 (1.2 μM) for 120 s.

Row | Binder | koff | kon
29 | B2 | 0.000618 s⁻¹ | 59400 M⁻¹ s⁻¹

Biological target: T3, his-tagged human CD47
Test: BLI, his-tagged human CD47 on anti-Penta-HIS (HIS1K) sensors, antibody as analyte
Protocol: as §4

Row | Binder | Kd
30 | B2 | 10.4 nM

Biological target: T1, human CD47 (recombinant protein, …)
Test: BLI (BLItz), IgG1 captured on anti-human Fc tips, human CD47 as analyte, 1:1 global fit
Protocol: as §1, with “Biosensors” for “Bio-Layer Interferometry (BLI) experiments were performed using a single channel BLItz system (ForteBio, Menlo Park, Calif.) using Anti-human immunoglobulin G (IgG) Fc (AHC) coated biosensor tips (Pall ForteBio, Menlo Park, Calif.) for capturing human IgGs. Biosensors”, “60” for “30”, “25” for “concentrations ranging from 25-50”, “(250 nM to 62.5” for “(500 nM-0”

Row | Binder | Kd | koff | kon
31 | B4 | 134 nM | 0.0144 s⁻¹ | 108000 M⁻¹ s⁻¹
32 | B2 | 9.31 nM | 0.00121 s⁻¹ | 130000 M⁻¹ s⁻¹
33 | B5 | 3.39 nM | 0.000904 s⁻¹ | 266000 M⁻¹ s⁻¹
34 | B6 | 111 nM | 0.00898 s⁻¹ | 80900 M⁻¹ s⁻¹
35 | B8 | 9.28 nM | 0.0012 s⁻¹ | 129000 M⁻¹ s⁻¹
36 | B10 | 23.3 nM | 0.00635 s⁻¹ | 273000 M⁻¹ s⁻¹

Biological target: T1, human CD47 (recombinant protein, …)
Test: as above
Remark: another data set of the same source
Protocol: as §1, with “The association phase of the IgGs with antigens (500 nM-0 nM) was set up at 120 s which was followed by a dissociation phase (assay buffer alone) for 120 s.” left out, “All the binding curves were subjected to step correction which corrects the misalignment between association and dissociation steps and only the curves with R² values greater than 0.9 were used for analysis.” left out
as §2

Row | Binder | Kd
37 | B1 | 9 nM
38 | B2 | 16.1 nM
